Data: patent US20260166158A1, “HSP90-BINDING CONJUGATES AND FORMULATIONS THEREOF” (Fusion Pharmaceuticals Inc., priority 2019, published 2026)

Tested on: NCI-H460 tumor-bearing mice (lung cancer)
Assay: Biodistribution: lutetium accumulation in tumor, plasma and healthy tissues by ICP-MS
Type: in vivo
Details: for T/K (Tumor/Kidney ratio) / T/L (Tumor/Liver ratio) / T/P (Tumor/Plasma ratio) / Kidney uptake, % ID/g 24 h / Liver uptake, % ID/g 24 h / Plasma, % ID/g 24 h / Tumor uptake, % ID/g, 24 h / % ID/g uptake, H460 tumor, 24 h / % ID/g uptake, Kidney, 24 h / % ID/g uptake, Liver, 24 h / % ID/g uptake, Plasma, 24 h: 24 h; for Kidney uptake, % ID/g 24 h / Liver uptake, % ID/g 24 h / Plasma, % ID/g 24 h / Tumor uptake, % ID/g, 24 h: second table; for % ID/g uptake, H460 tumor, 24 h / % ID/g uptake, H460 tumor, 72 h / % ID/g uptake, Kidney, 24 h / % ID/g uptake, Kidney, 72 h / % ID/g uptake, Liver, 24 h / % ID/g uptake, Liver, 72 h / % ID/g uptake, Plasma, 24 h / % ID/g uptake, Plasma, 72 h: 0.5 mg/kg lutetium conjugate
Protocol: Lutetium accumulation was measured in tumor, plasma and healthy tissues of NCI-H460 tumor-bearing mice (lung cancer). NCJ-H460 tumor bearing mice were dosed with 0.5 mg/kg of lutetium conjugates. At the time points indicated, mice were sacrificed and tumor, liver, kidneys and plasma were taken. All tissues were analyzed for lutetium content by ICP-MS, and lutetium uptake in % ID/g determined by the following equation: […]
Biodistribution at 24 h and Tumor/Kidney ratio (T/K), Tumor/Liver ratio (T/L), Tumor/Plasma ratio (T/P) are give in the table below.

SMILES	T/K (Tumor/Kidney ratio)	T/L (Tumor/Liver ratio)	T/P (Tumor/Plasma ratio)	Kidney uptake, % ID/g 24 h	Liver uptake, % ID/g 24 h	Plasma, % ID/g 24 h	Tumor uptake, % ID/g, 24 h	% ID/g uptake, H460 tumor, 24 h	% ID/g uptake, H460 tumor, 72 h	% ID/g uptake, Kidney, 24 h	% ID/g uptake, Kidney, 72 h	% ID/g uptake, Liver, 24 h	% ID/g uptake, Liver, 72 h	% ID/g uptake, Plasma, 24 h	% ID/g uptake, Plasma, 72 h
CCNC(=O)c1nnc(-c2cc(C(C)C)c(O)cc2O)n1-c1ccc(C2CCN(C(=O)CCOCCOCCOCCOCCOCCOCCOCCOCCOCCOCCOCCOCCNC(=O)CN3CCN4CCN5CCN(CC3)CC(=O)[O][Lu]([O]C(=O)C4)[O]C(=O)C5)CC2)cc1 [CMP33]	2.05	3.64	5.11	1.62 % ID/g	0.91 % ID/g	0.65 % ID/g	3.32 % ID/g								
CCNC(=O)c1nnc(-c2cc(C(C)C)c(O)cc2O)n1-c1ccc(CN2CCN(C(=O)CC[C@H](NC(=O)CCNC(=O)[C@@H](CCC(=O)O)NC(=O)[C@@H](CCC(=O)O)NC(=O)[C@@H](CCC(=O)O)NC(=O)COCCOCCNC(=O)CC[C@H](C(=O)O)N3CCN4CCN5CCN(CC3)CC(=O)[O][Lu]([O]C(=O)C5)[O]C(=O)C4)C(=O)N3CCN(Cc4ccc(-n5c(C(=O)NCC)nnc5-c5cc(C(C)C)c(O)cc5O)cc4)CC3)CC2)cc1 [T5]								1.74 % ID/g	0.00 % ID/g	3.14 % ID/g	1.08 % ID/g	0.68 % ID/g	0.23 % ID/g	0.16 % ID/g	0.01 % ID/g
CCNC(=O)c1nnc(-c2cc(C(C)C)c(O)cc2O)n1-c1ccc(CC2CCN(C(=O)CCOCCOCCOCCOCCOCCOCCOCCOCCOCCOCCOCCOCCNC(=O)CN3CCN4CCN5CCN(CC3)CC(=O)[O][Lu]([O]C(=O)C4)[O]C(=O)C5)CC2)cc1 [CMP34]	3.96	3.06	5.54	1.12 % ID/g	1.45 % ID/g	0.80 % ID/g	4.43 % ID/g								
CCNC(=O)c1nnc(-c2cc(C(C)C)c(O)cc2O)n1-c1ccc(CC2CCN(C(=O)CCC(=O)N[C@@H](CCCCNC(=O)CN3CCN4CCN5CCN(CC3)CC(=O)[O][Lu]([O]C(=O)C4)[O]C(=O)C5)C(=O)N3CCC(Cc4ccc(-n5c(C(=O)NCC)nnc5-c5cc(C(C)C)c(O)cc5O)cc4)CC3)CC2)cc1 [CMP24]	2.58	1.07	0.89	4.81 % ID/g	11.53 % ID/g	13.96 % ID/g	12.39 % ID/g								
CCNC(=O)c1nnc(-c2cc(C(C)C)c(O)cc2O)n1-c1ccc(C2CN(C(=O)CCOCCOCCOCCOCCNC(=O)CN3CCN4CCN5CCN(CC3)CC(=O)[O][Lu]([O]C(=O)C4)[O]C(=O)C5)C2)cc1 [CMP29]	2.19	2.23	4.08	1.12 % ID/g	1.10 % ID/g	0.60 % ID/g	2.45 % ID/g								
CCNC(=O)c1nnc(-c2cc(C(C)C)c(O)cc2O)n1-c1ccc(OC2CCN(C(=O)CCNC(=O)[C@@H](CCC(=O)N3CCC(Oc4ccc(-n5c(C(=O)NCC)nnc5-c5cc(C(C)C)c(O)cc5O)cc4)CC3)NC(=O)CCNC(=O)[C@@H](CCC(=O)O)NC(=O)[C@@H](CCC(=O)O)NC(=O)[C@@H](CCC(=O)O)NC(=O)COCCOCCNC(=O)[C@H](CCCCNC(=O)CC[C@H](C(=O)O)N(CC)CCN3CCN4CCN(C)CC(=O)[O][Lu]([O]C(=O)C4)[O]C(=O)C3)NC(=O)CCCc3ccc(I)cc3)CC2)cc1 [T12]								9.01 % ID/g	5.87 % ID/g	34.00 % ID/g	18.60 % ID/g	3.73 % ID/g	2.03 % ID/g	5.08 % ID/g	0.41 % ID/g
CCNC(=O)c1nnc(-c2cc(C(C)C)c(O)cc2O)n1-c1ccc(CC2CCN(C(=O)CCOCCOCCOCCOCCNC(=O)CN3CCN4CCN5CCN(CC3)CC(=O)[O][Lu]([O]C(=O)C4)[O]C(=O)C5)CC2)cc1 [CMP31]	5.00	2.30	5.19	0.84 % ID/g	1.83 % ID/g	0.81 % ID/g	4.20 % ID/g								
CCNC(=O)c1nnc(-c2cc(C(C)C)c(O)cc2O)n1-c1ccc(CC2CCN(C(=O)C[C@H](NC(=O)CN3CCN4CCN5CCN(CC3)CC(=O)[O][Lu]([O]C(=O)C4)[O]C(=O)C5)C(=O)N[C@H](C)C(=O)N3CCC(Cc4ccc(-n5c(C(=O)NCC)nnc5-c5cc(C(C)C)c(O)cc5O)cc4)CC3)CC2)cc1 [CMP27]	1.13	0.50	1.53	6.66 % ID/g	14.98 % ID/g	4.89 % ID/g	7.50 % ID/g								
CCNC(=O)c1nnc(-c2cc(C(C)C)c(O)cc2O)n1-c1ccc(CC2CCN(C(=O)CCOCCOCCOCCOCCOCCOCCOCCOCCOCCOCCOCCOCCNC(=O)[C@H](CCCCNC(=O)CCCc3ccc(I)cc3)NC(=O)CN3CCN4CCN5CCN(CC3)CC(=O)[O][Lu]([O]C(=O)C4)[O]C(=O)C5)CC2)cc1 [CMP3]	3.38	2.39	0.84	5.13 % ID/g	7.26 % ID/g	20.57 % ID/g	17.36 % ID/g								
CCNC(=O)c1nnc(-c2cc(C(C)C)c(O)cc2O)n1-c1ccc(OC2CCN(C(=O)CCNC(=O)[C@@H](CCC(=O)N3CCC(Oc4ccc(-n5c(C(=O)NCC)nnc5-c5cc(C(C)C)c(O)cc5O)cc4)CC3)NC(=O)CCOCCOCCOCCOCCNC(=O)CN3CCN4CCN5CCN(CC3)CC(=O)[O][Lu]([O]C(=O)C4)[O]C(=O)C5)CC2)cc1 [CMP35]	0.74	0.50	3.97	11.87 % ID/g	17.67 % ID/g	2.212 % ID/g	8.776 % ID/g								
CCNC(=O)c1nnc(-c2cc(C(C)C)c(O)cc2O)n1-c1ccc(C2CCN(C(=O)CCOCCOCCOCCOCCNC(=O)CN3CCN4CCN5CCN(CC3)CC(=O)[O][Lu]([O]C(=O)C4)[O]C(=O)C5)CC2)cc1 [CMP30]	2.57	0.62	2.75	0.76 % ID/g	3.16 % ID/g	0.71 % ID/g	1.95 % ID/g								
CCNC(=O)c1nnc(-c2cc(C(C)C)c(O)cc2O)n1-c1ccc(OC2CCN(C(=O)CCOCCOCCOCCOCCOCCOCCOCCOCCOCCOCCOCCOCCNC(=O)CN3CCN4CCN5CCN(CC3)CC(=O)[O][Lu]([O]C(=O)C4)[O]C(=O)C5)CC2)cc1 [CMP41]	5.10	6.34	8.37	0.86 % ID/g	0.69 % ID/g	0.52 % ID/g	4.39 % ID/g								
